What was measured:
Assay in all cases: cell-based or functional assay
[1] = molecular target: T1, SARS-CoV-2 spike protein, wild type (Wuhan) (SARS-CoV-2, UniProt P0DTC2 14-1273)
[2] = molecular target: spike protein of live SARS-CoV-2 (2019-nCoV/IDF0372/2020) (SARS-CoV-2, UniProt P0DTC2 14-1273)
[3] = molecular target: T1, SARS-CoV-2 spike protein, wild type …; remark: listed apart in the source
[4] = molecular target: T1, SARS-CoV-2 spike protein, wild type …; remark: listed apart in the source
[5] = molecular target: SARS-CoV-2 spike protein variant B.1.351 (SARS-CoV-2, UniProt P0DTC2 14-1273)
[6] = molecular target: SARS-CoV-2 spike protein N501Y (SARS-CoV-2, UniProt P0DTC2 14-1273)
[7] = molecular target: SARS-CoV-2 spike protein E484K (SARS-CoV-2, UniProt P0DTC2 14-1273)
[8] = molecular target: SARS-CoV-2 spike protein K417E (SARS-CoV-2, UniProt P0DTC2 14-1273)
[9] = molecular target: SARS-CoV-2 spike protein Y453F (SARS-CoV-2, UniProt P0DTC2 14-1273)
[10] = molecular target: SARS-CoV-2 spike protein D614G (SARS-CoV-2, UniProt P0DTC2 14-1273)
[11] = molecular target: SARS-CoV-2 spike protein S477N (SARS-CoV-2, UniProt P0DTC2 14-1273)
[12] = molecular target: SARS-CoV-2 spike protein N439K (SARS-CoV-2, UniProt P0DTC2 14-1273)
[13] = molecular target: SARS-CoV-2 spike protein T478I (SARS-CoV-2, UniProt P0DTC2 14-1273)
[14] = molecular target: SARS-CoV-2 spike protein P479S (SARS-CoV-2, UniProt P0DTC2 14-1273)
[15] = molecular target: SARS-CoV-2 spike protein V483A (SARS-CoV-2, UniProt P0DTC2 14-1273)
[16] = molecular target: SARS-CoV-2 spike protein F486V (SARS-CoV-2, UniProt P0DTC2 14-1273)
[17] = molecular target: SARS-CoV-2 spike protein Q493K (SARS-CoV-2, UniProt P0DTC2 14-1273)
[18] = molecular target: SARS-CoV-2 spike protein F490S (SARS-CoV-2, UniProt P0DTC2 14-1273)

B1: ALE030 (designed binder)
chain: MRGSHHHHHHGSDLGKKLLEAARAGQDDEVRELLKAGADVNAKDYFSHTPLHLAARNGHLKIVEVLLKAGADVNAKDFAGKTPLHLAANEGHLEIVEVLLKAGADVNAQDIFGKTPADIAADAGHEDIAEVLQKAAGSPTPTPTTPTPTPTTPTPTPTGSDLGKKLLEAARAGQDDEVRELLKAGADVNAKDYFSHTPLHLAARNGHLKIVEVLLKAGADVNAKDFAGKTPLHLAANEGHLEIVEVLLKAGADVNAQDIFGKTPADIAADAGHEDIAEVLQKAAGSPTPTPTTPTPTPTTPTPTPTGSDLGKKLLQAARAGQLDEVRELLKAGADVNAKDREGITPLHLAAQHGHLEIVEVLLKAGADVNAKDVWGRTPLHLAAWQGHLEIVEVLLKAGADVNAKDLAGATPLHVAALYGHLEIVEVLLKAGADVNAQDKSGKTPADLAARAGHQDIAEVLQKAAGSPTPTPTTPTPTPTTPTPTPTGSDLGNKLLDAAWVGQDDEVRILLAAGADVNAKDWQGETPLHLAATKGHLEIVEVLLKAGADVNAKDVVGYTPLHVAASQGHLEIVEVLLKAGADVNAQDVHGYTPADLAAQAGHEDIAEVLQKAAGSPTPTPTTPTPTPTTPTPTPTGSDLGKKLLQAARAGQLDEVRELLKAGADVNAKDREGKTPLHVAAQEGHLEIVEVLLKAGADVNAKDVWGRTPLHLAAWIGHLEIVEVLLKAGADVNAKDVSGATPLHAAALHGHLEIVEVLLNAGADVNAQDKSGKTPADLAARAGHQDIAEVLQKAA
- IC50, SARS-CoV-2 VSV pseudovirus neutralization (luciferase) [1]: 0.119 nM

B2: vS07_19G10 (designed binder)
chain: MRGSHHHHHHGSDLGNKLLDAAWVGQDDEVRILLAAGADVNAKDWQGETPLHLAATKGHLEIVEVLLKAGADVNAKDVVGYTPLHVAASQGHLEIVEVLLKAGADVNAQDVHGYTPADLAAQAGHEDIAEVLQKAA
notes: also called R2a
- protection of Vero E6 cells from SARS-CoV-2 cytopathic effect [2]: 100 nM

B3: vS07_23E04 (designed binder)
chain: MRGSHHHHHHGSDLGKKLLQAARAGQLDEVRELLKAGADVNAKDQEGITPLHVAAHQGHLEIVEVLLKAGADVNAKDVWGRTPLHLAAWRGHLEIVEVLLKAGADVNAKDHAGATPLHAAALSGHLEIVEVLLKAGADVNAQDKSGKTPADLAARAGHQDIAEVLQKAA
notes: also called R3c
- protection of Vero E6 cells from SARS-CoV-2 cytopathic effect [2]: 20 nM
- VSV-SARS-CoV-2 IC50 [3]: < 2 nM
- VSV Pseudotype Neutralization Assay IC50 [4]: 13.3 ng/mL
- VSV Pseudotype Neutralization Assay IC50 [5]: > 100 ng/mL
- VSV Pseudotype Neutralization Assay IC50 [6]: 27.8 ng/mL
- VSV Pseudotype Neutralization Assay IC50 [7]: > 100 ng/mL
- VSV Pseudotype Neutralization Assay IC50 [8]: 3.6 ng/mL
- VSV Pseudotype Neutralization Assay IC50 [9]: 3.3 ng/mL
- VSV Pseudotype Neutralization Assay IC50 [10]: 23 ng/mL
- VSV Pseudotype Neutralization Assay IC50 [11]: 9 ng/mL
- VSV Pseudotype Neutralization Assay IC50 [12]: 12.9 ng/mL
- VSV Pseudotype Neutralization Assay IC50 [13]: 16.7 ng/mL
- VSV Pseudotype Neutralization Assay IC50 [14]: 27.6 ng/mL
- VSV Pseudotype Neutralization Assay IC50 [15]: 21.3 ng/mL
- VSV Pseudotype Neutralization Assay IC50 [16]: > 100 ng/mL
- VSV Pseudotype Neutralization Assay IC50 [17]: 45.8 ng/mL
- VSV Pseudotype Neutralization Assay IC50 [18]: 8.1 ng/mL

B4: vS07_29B10 (designed binder)
chain: MRGSHHHHHHGSDLGKKLLQAARAGQLDEVRELLKAGADVNAKDREGITPLHLAAQHGHLEIVEVLLKAGADVNAKDVWGRTPLHLAAWQGHLEIVEVLLKAGADVNAKDLAGATPLHVAALYGHLEIVEVLLKAGADVNAQDKSGKTPADLAARAGHQDIAEVLQKAA
notes: also called R3b
- protection of Vero E6 cells from SARS-CoV-2 cytopathic effect [2]: 20 nM
- VSV-SARS-CoV-2 IC50 [3]: < 2 nM
- VSV Pseudotype Neutralization Assay IC50 [4]: 7.2 ng/mL
- VSV Pseudotype Neutralization Assay IC50 [5]: 76 ng/mL
- VSV Pseudotype Neutralization Assay IC50 [6]: 9.1 ng/mL
- VSV Pseudotype Neutralization Assay IC50 [7]: 64.2 ng/mL
- VSV Pseudotype Neutralization Assay IC50 [8]: 1.8 ng/mL
- VSV Pseudotype Neutralization Assay IC50 [9]: 10.9 ng/mL
- VSV Pseudotype Neutralization Assay IC50 [10]: 11.9 ng/mL
- VSV Pseudotype Neutralization Assay IC50 [11]: 3 ng/mL
- VSV Pseudotype Neutralization Assay IC50 [12]: 7.3 ng/mL
- VSV Pseudotype Neutralization Assay IC50 [13]: 11.2 ng/mL
- VSV Pseudotype Neutralization Assay IC50 [14]: 7.2 ng/mL
- VSV Pseudotype Neutralization Assay IC50 [15]: 21.8 ng/mL
- VSV Pseudotype Neutralization Assay IC50 [16]: > 100 ng/mL
- VSV Pseudotype Neutralization Assay IC50 [17]: 30 ng/mL
- VSV Pseudotype Neutralization Assay IC50 [18]: 2.3 ng/mL

B5: vS07_12C06 (designed binder)
chain: MRGSHHHHHHGSDLGKKLLQAARAGQLDEVRELLKAGADVNAKDREGKTPLHVAAQEGHLEIVEVLLKAGADVNAKDVWGRTPLHLAAWIGHLEIVEVLLKAGADVNAKDVSGATPLHAAALHGHLEIVEVLLNAGADVNAQDKSGKTPADLAARAGHQDIAEVLQKAA
notes: also called R1b; Rb1
- protection of Vero E6 cells from SARS-CoV-2 cytopathic effect [2]: 2 nM
- VSV-SARS-CoV-2 IC50 [3]: < 2 nM
- VSV Pseudotype Neutralization Assay IC50 [4]: 2.1 ng/mL
- VSV Pseudotype Neutralization Assay IC50 [5]: 26 ng/mL
- VSV Pseudotype Neutralization Assay IC50 [6]: 4.8 ng/mL
- VSV Pseudotype Neutralization Assay IC50 [7]: 10.2 ng/mL
- VSV Pseudotype Neutralization Assay IC50 [8]: 1 ng/mL
- VSV Pseudotype Neutralization Assay IC50 [9]: 5.9 ng/mL
- VSV Pseudotype Neutralization Assay IC50 [10]: 6.2 ng/mL
- VSV Pseudotype Neutralization Assay IC50 [11]: 2 ng/mL
- VSV Pseudotype Neutralization Assay IC50 [12]: 5.3 ng/mL
- VSV Pseudotype Neutralization Assay IC50 [13]: 3.1 ng/mL
- VSV Pseudotype Neutralization Assay IC50 [14]: 2.3 ng/mL
- VSV Pseudotype Neutralization Assay IC50 [15]: 8.4 ng/mL
- VSV Pseudotype Neutralization Assay IC50 [16]: > 100 ng/mL
- VSV Pseudotype Neutralization Assay IC50 [17]: 28.2 ng/mL
- VSV Pseudotype Neutralization Assay IC50 [18]: 1.7 ng/mL

B6: vS07_14G03 (designed binder)
chain: MRGSHHHHHHGSDLGQKLLHAAQYGQDDEVRILLAAGADVNAKDKQGNTPLHIAAFHGHLEIVEVLLKAGADVNAKDQWGLTPLHLAAAWGHLEIVEVLLKAGADVNAQDNYGQTPADLAAESGHEDIAEVLQKAA
notes: also called S2a
- VSV-SARS-CoV-2 IC50 [3]: < 100 nM

B7: ALE033 (designed binder)
chain: MRGSHHHHHHGSDLGKKLLEAARAGQDDEVRELLKAGADVNAKDYFSHTPLHLAARNGHLKIVEVLLKAGADVNAKDFAGKTPLHLAANEGHLEIVEVLLKAGADVNAQDIFGKTPADIAADAGHEDIAEVLQKAAGSPTPTPTTPTPTPTTPTPTPTGSDLGKKLLEAARAGQDDEVRELLKAGADVNAKDYFSHTPLHLAARNGHLKIVEVLLKAGADVNAKDFAGKTPLHLAANEGHLEIVEVLLKAGADVNAQDIFGKTPADIAADAGHEDIAEVLQKAAGSPTPTPTTPTPTPTTPTPTPTGSDLGKKLLQAARAGQLDEVRELLKAGADVNAKDREGITPLHLAAQHGHLEIVEVLLKAGADVNAKDVWGRTPLHLAAWQGHLEIVEVLLKAGADVNAKDLAGATPLHVAALYGHLEIVEVLLKAGADVNAQDKSGKTPADLAARAGHQDIAEVLQKAAGSPTPTPTTPTPTPTTPTPTPTGSDLGKKLLQAARAGQLDEVRELLKAGADVNAKDREGKTPLHVAAQEGHLEIVEVLLKAGADVNAKDVWGRTPLHLAAWIGHLEIVEVLLKAGADVNAKDVSGATPLHAAALHGHLEIVEVLLNAGADVNAQDKSGKTPADLAARAGHQDIAEVLQKAAGSPTPTPTTPTPTPTTPTPTPTGSDLGKKLLQAARAGQLDEVRELLKAGADVNAKDREGITPLHLAAQHGHLEIVEVLLKAGADVNAKDVWGRTPLHLAAWQGHLEIVEVLLKAGADVNAKDLAGATPLHVAALYGHLEIVEVLLKAGADVNAQDKSGKTPADLAARAGHQDIAEVLQKAA
- IC50, SARS-CoV-2 VSV pseudovirus neutralization (luciferase) [1]: 0.125 nM

B8: ALE038 (designed binder)
chain: MRGSHHHHHHGSDLGKKLLEAARAGQDDEVRELLKAGADVNAKDYFSHTPLHLAARNGHLKIVEVLLKAGADVNAKDFAGKTPLHLAANEGHLEIVEVLLKAGADVNAQDIFGKTPADIAADAGHEDIAEVLQKAAGSPTPTPTTPTPTPTTPTPTPTGSDLGKKLLEAARAGQDDEVRELLKAGADVNAKDYFSHTPLHLAARNGHLKIVEVLLKAGADVNAKDFAGKTPLHLAANEGHLEIVEVLLKAGADVNAQDIFGKTPADIAADAGHEDIAEVLQKAAGSPTPTPTTPTPTPTTPTPTPTGSDLGKKLLQAARAGQLDEVRELLKAGADVNAKDREGKTPLHVAAQEGHLEIVEVLLKAGADVNAKDVWGRTPLHLAAWIGHLEIVEVLLKAGADVNAKDVSGATPLHAAALHGHLEIVEVLLNAGADVNAQDKSGKTPADLAARAGHQDIAEVLQKAAGSPTPTPTTPTPTPTTPTPTPTGSDLGKKLLQAARAGQLDEVRELLKAGADVNAKDREGITPLHLAAQHGHLEIVEVLLKAGADVNAKDVWGRTPLHLAAWQGHLEIVEVLLKAGADVNAKDLAGATPLHVAALYGHLEIVEVLLKAGADVNAQDKSGKTPADLAARAGHQDIAEVLQKAAGSPTPTPTTPTPTPTTPTPTPTGSDLGHKLLLAAQAGQDDEVRILLAAGADVNAKDVFGQTPLHVAAVAGHLEIVEVLLKAGADVNAKDSIGYTPLHHAARVGHLEIVEVLLKAGADVNAQDWIGITPADLAAFEGHEDIAEVLQKAA
- IC50, SARS-CoV-2 VSV pseudovirus neutralization (luciferase) [1]: 0.264 nM

— US20220235103A1 (Molecular Partners, published 2022)
